{"source": "paper PMC5085866", "assay_in_all_cases": "AUC", "key": {"[1]": {"target": "Enterococcus faecium LiaR W73C, full length (Enterococcus faecium)"}, "[2]": {"target": "Enterococcus faecium LiaR W73C, full length (Enterococcus faecium)", "remark": "listed apart in the source"}, "[3]": {"target": "Enterococcus faecium LiaR receiver domain (residues 1-139) (Enterococcus faecium)"}, "[4]": {"target": "Enterococcus faecium LiaR DNA binding domain (residues 140-210) (Enterococcus faecium)"}, "[5]": {"target": "Enterococcus faecium LiaR receiver domain (residues 1-139) W73C (Enterococcus faecium)"}, "[6]": {"target": "Enterococcus faecium LiaR receiver domain (residues 1-139) W73C (Enterococcus faecium)", "remark": "listed apart in the source"}}, "note": "Like-named read-outs stand apart in the source and are kept apart here.", "data": [{"substance": "Enterococcus faecium LiaR W73C, full length (natural protein)", "values": [{"measurement": "Kd", "setting": "[1]", "value": 236, "unit": "µM"}, {"measurement": "Kd", "setting": "[2]", "value": 182, "unit": "µM"}]}, {"substance": "Enterococcus faecium LiaR receiver domain (residues 1-139) (domain or fragment)", "values": [{"measurement": "Kd", "setting": "[3]", "value": 676, "unit": "µM"}]}, {"substance": "Enterococcus faecium LiaR DNA binding domain (residues 140-210) (domain or fragment)", "values": [{"measurement": "Kd", "setting": "[4]", "value": 400, "unit": "nM"}]}, {"substance": "Enterococcus faecium LiaR receiver domain (residues 1-139) W73C (domain or fragment)", "values": [{"measurement": "Kd", "setting": "[5]", "value": 800, "unit": "nM"}, {"measurement": "Kd", "setting": "[6]", "value": 94, "unit": "µM"}]}]}
